{"source": "paper PMC10784468", "about": "(Nature Communications, 2024)", "key": {"[1]": {"test_system": "PTGS2", "test": "Tumor PTGS2 content detection", "assay_type": "in vivo, BALB/c nude mice", "settings": "EJ tumor tissues, 8 mg/kg i.v., versus PBS, Gi-F and Gi-F-SA", "protocol": "EJ tumor tissues were collected under euthanasia at the end of treatment and washed with PBS for 3 times. Afterwards, the immunofluorescence analyses of Prostaglandin-Endoperoxide Synthase 2 (PTGS2) expression were performed with Wuhan Servicebio Technology Co., Ltd."}, "[2]": {"test_system": "786-O xenograft tumors", "test": "In vivo antitumor evaluation in large tumor model (786-O)", "design": "species or system BALB/c nude mice", "settings": "six i.v. injections at 2-days intervals, Gi-F-CAA 8 mg/kg, Bevacizumab 5 mg/kg"}, "[3]": {"protocol": "The main organs (heart, liver, spleen, lung, kidney and intestine) of healthly BALB/c nude mice (~8 weeks old, 18 g) were collected under euthanasia after treatment with PBS and Gi-F-CAA (8, 12 and 16 mg/kg in 100 μL PBS) for 1 day. Afterwards, the histology evaluation by Hematoxylin and Eosin (H&E) Staining was carried out by Servicebio Technology Co., Ltd. (Wuhan, China). Meanwhile, the whole blood and serum of healthly BALB/c nude mice (~8 weeks old, 18 g) were collected after treatment with PBS and Gi-F-CAA (8, 12 and 16 mg/kg in 100 μL PBS) for 1 days. The blood biochemistry analysis was performed with Hitachi Automatic Biochemical Analyzer 7100. The blood routine analysis was carried out by Vital River Laboratory Animal Technology Co., Ltd. (Beijing, China)."}}, "note": "Read-outs that look alike come from different tables or passages of the source. Positions of bridges follow the written chain, without caps; N, C: chain ends. Residues, ends and D or L forms follow the SMILES beside them. *: point of attachment. X1 = O=C(O)c1ccc(-c2c3nc(c(-c4ccc(C(=O)O)cc4)c4ccc([nH]4)c(-c4ccc(C(=O)*)cc4)c4nc(c(-c5ccc(C(=O)O)cc5)c5ccc2[nH]5)C=C4)C=C3)cc1; X2 = O=C(O)C/C(=C/C(=O)*)C(=O)O"}
{"smiles": "CC(C)C[C@H](NC(=O)c1ccc(-c2c3nc(c(-c4ccc(C(=O)O)cc4)c4ccc([nH]4)c(-c4ccc(C(=O)O)cc4)c4nc(c(-c5ccc(C(=O)O)cc5)c5ccc2[nH]5)C=C4)C=C3)cc1)C(=O)N[C@@H](CCCCNC(=O)/C=C(/CC(=O)O)C(=O)O)C(=O)N[C@@H](CC(C)C)C(=O)N[C@@H](CCCCN)C(=O)N[C@@H](CC(C)C)C(=O)N[C@@H](CCCCNC(=O)/C=C(/CC(=O)O)C(=O)O)C(=O)NCC(=O)N[C@@H](C)C(=O)N[C@H]1CSSC[C@@H](C(=O)N2CCC[C@H]2C(=O)N[C@H](C(=O)O)C(C)C)NC(=O)[C@@H]2CCCN2C(=O)[C@H](Cc2ccc(O)cc2)NC(=O)[C@H](CC(C)C)NC(=O)[C@@H]2CCCN2C(=O)[C@H](CC(C)C)NC(=O)[C@H](Cc2c[nH]c3ccccc23)NC(=O)[C@H](CC(N)=O)NC1=O", "note": "[Gi-F-CAA] (X1-LK(X2)LKLK(X2)GACNWLPLYPCPV-OH; disulfide 9-17; C-terminus assumed)", "values": [{"measurement": "PTGS2 levels of tumor tissues", "setting": "[1]", "value": "elevation"}, {"measurement": "tumor volume course in large tumors (~500 mm^3)", "setting": "[2]", "value": "declining tendency for 10 days and maintained a long-termed tumor growth inhibition"}, {"measurement": "ALP", "setting": "[3]; 8 mg/kg, mice 1", "value": 152, "unit": "U/L"}, {"measurement": "ALT", "setting": "[3]; 8 mg/kg, mice 1", "value": 62, "unit": "U/L"}, {"measurement": "AST", "setting": "[3]; 8 mg/kg, mice 1", "value": 183, "unit": "U/L"}, {"measurement": "BUN", "setting": "[3]; 8 mg/kg, mice 1", "value": 13.2, "unit": "mmol/L"}, {"measurement": "CREA", "setting": "[3]; 8 mg/kg, mice 1", "value": 30.8, "unit": "µmol/L"}, {"measurement": "HGB", "setting": "[3]; 8 mg/kg, mice 1", "value": 15.7, "unit": "g/dL"}, {"measurement": "NEUT", "setting": "[3]; 8 mg/kg, mice 1", "value": "0.4 109/L"}, {"measurement": "PLT", "setting": "[3]; 8 mg/kg, mice 1", "value": "985 109/L"}, {"measurement": "RBC", "setting": "[3]; 8 mg/kg, mice 1", "value": "10.6 1012/L"}, {"measurement": "WBC", "setting": "[3]; 8 mg/kg, mice 1", "value": "1.8 109/L"}, {"measurement": "ALP", "setting": "[3]; 8 mg/kg, mice 2", "value": 159, "unit": "U/L"}, {"measurement": "ALT", "setting": "[3]; 8 mg/kg, mice 2", "value": 60, "unit": "U/L"}, {"measurement": "AST", "setting": "[3]; 8 mg/kg, mice 2", "value": 184, "unit": "U/L"}, {"measurement": "BUN", "setting": "[3]; 8 mg/kg, mice 2", "value": 14.42, "unit": "mmol/L"}, {"measurement": "CREA", "setting": "[3]; 8 mg/kg, mice 2", "value": 28.8, "unit": "µmol/L"}, {"measurement": "HGB", "setting": "[3]; 8 mg/kg, mice 2", "value": 15.4, "unit": "g/dL"}, {"measurement": "NEUT", "setting": "[3]; 8 mg/kg, mice 2", "value": "0.3 109/L"}, {"measurement": "PLT", "setting": "[3]; 8 mg/kg, mice 2", "value": "1198 109/L"}, {"measurement": "RBC", "setting": "[3]; 8 mg/kg, mice 2", "value": "10.1 1012/L"}, {"measurement": "WBC", "setting": "[3]; 8 mg/kg, mice 2", "value": "1.5 109/L"}, {"measurement": "ALP", "setting": "[3]; 8 mg/kg, mice 3", "value": 145, "unit": "U/L"}, {"measurement": "ALT", "setting": "[3]; 8 mg/kg, mice 3", "value": 56, "unit": "U/L"}, {"measurement": "AST", "setting": "[3]; 8 mg/kg, mice 3", "value": 193, "unit": "U/L"}, {"measurement": "BUN", "setting": "[3]; 8 mg/kg, mice 3", "value": 13.94, "unit": "mmol/L"}, {"measurement": "CREA", "setting": "[3]; 8 mg/kg, mice 3", "value": 31.6, "unit": "µmol/L"}, {"measurement": "HGB", "setting": "[3]; 8 mg/kg, mice 3", "value": 15.9, "unit": "g/dL"}, {"measurement": "NEUT", "setting": "[3]; 8 mg/kg, mice 3", "value": "0.3 109/L"}, {"measurement": "PLT", "setting": "[3]; 8 mg/kg, mice 3", "value": "1073 109/L"}, {"measurement": "RBC", "setting": "[3]; 8 mg/kg, mice 3", "value": "9 1012/L"}, {"measurement": "WBC", "setting": "[3]; 8 mg/kg, mice 3", "value": "1.7 109/L"}, {"measurement": "ALP", "setting": "[3]; 8 mg/kg, mice 4", "value": 159, "unit": "U/L"}, {"measurement": "ALT", "setting": "[3]; 8 mg/kg, mice 4", "value": 63, "unit": "U/L"}, {"measurement": "AST", "setting": "[3]; 8 mg/kg, mice 4", "value": 180, "unit": "U/L"}, {"measurement": "BUN", "setting": "[3]; 8 mg/kg, mice 4", "value": 13.15, "unit": "mmol/L"}, {"measurement": "CREA", "setting": "[3]; 8 mg/kg, mice 4", "value": 31, "unit": "µmol/L"}, {"measurement": "HGB", "setting": "[3]; 8 mg/kg, mice 4", "value": 15.3, "unit": "g/dL"}, {"measurement": "NEUT", "setting": "[3]; 8 mg/kg, mice 4", "value": "0.4 109/L"}, {"measurement": "PLT", "setting": "[3]; 8 mg/kg, mice 4", "value": "1117 109/L"}, {"measurement": "RBC", "setting": "[3]; 8 mg/kg, mice 4", "value": "10 1012/L"}, {"measurement": "WBC", "setting": "[3]; 8 mg/kg, mice 4", "value": "2 109/L"}, {"measurement": "ALP", "setting": "[3]; 12 mg/kg, mice 1", "value": 150, "unit": "U/L"}, {"measurement": "ALT", "setting": "[3]; 12 mg/kg, mice 1", "value": 61, "unit": "U/L"}, {"measurement": "AST", "setting": "[3]; 12 mg/kg, mice 1", "value": 192, "unit": "U/L"}, {"measurement": "BUN", "setting": "[3]; 12 mg/kg, mice 1", "value": 13.27, "unit": "mmol/L"}, {"measurement": "CREA", "setting": "[3]; 12 mg/kg, mice 1", "value": 30, "unit": "µmol/L"}, {"measurement": "HGB", "setting": "[3]; 12 mg/kg, mice 1", "value": 15.2, "unit": "g/dL"}, {"measurement": "NEUT", "setting": "[3]; 12 mg/kg, mice 1", "value": "0.4 109/L"}, {"measurement": "PLT", "setting": "[3]; 12 mg/kg, mice 1", "value": "991 109/L"}, {"measurement": "RBC", "setting": "[3]; 12 mg/kg, mice 1", "value": "9 1012/L"}, {"measurement": "WBC", "setting": "[3]; 12 mg/kg, mice 1", "value": "1.9 109/L"}, {"measurement": "ALP", "setting": "[3]; 12 mg/kg, mice 2", "value": 145, "unit": "U/L"}, {"measurement": "ALT", "setting": "[3]; 12 mg/kg, mice 2", "value": 63, "unit": "U/L"}, {"measurement": "AST", "setting": "[3]; 12 mg/kg, mice 2", "value": 191, "unit": "U/L"}, {"measurement": "BUN", "setting": "[3]; 12 mg/kg, mice 2", "value": 13.11, "unit": "mmol/L"}, {"measurement": "CREA", "setting": "[3]; 12 mg/kg, mice 2", "value": 28.5, "unit": "µmol/L"}, {"measurement": "HGB", "setting": "[3]; 12 mg/kg, mice 2", "value": 15.4, "unit": "g/dL"}, {"measurement": "NEUT", "setting": "[3]; 12 mg/kg, mice 2", "value": "0.3 109/L"}, {"measurement": "PLT", "setting": "[3]; 12 mg/kg, mice 2", "value": "1110 109/L"}, {"measurement": "RBC", "setting": "[3]; 12 mg/kg, mice 2", "value": "9.3 1012/L"}, {"measurement": "WBC", "setting": "[3]; 12 mg/kg, mice 2", "value": "1.6 109/L"}]}
